# Laboratory results reported in IntAct's records for PubMed 16537494.
# B1: Epsin-1 (Saccharomyces cerevisiae), Q12518 (parent)
# chain: MSKQFVRSAKNLVKGYSSTQVLVRNATSNDNHQVSKDSLIELAEKSYDSADFFEIMDMLDKRLNDKGKYWRHIAKALTVIDYLIRFGSENCVLWCRENLYIIKTLKEFRHEDDEGIDQGQIVRVKAKELTALLSDDERLNEERNMNIKGRNRKGRRRRGTGRSDENDDDLQRAISASRLTAEEDERRRKQDEDYETALQLSKEEEELKRLQDLQRMQQQQGQQQLQQPMYYDIFGNPITPEEYAQFQLQQQQQQQQQQLQQQPMYYDVFGNPITPEELAQFQQQQQLQEQQYLASMQQQQQAMSNNPFAKSEQSSSSPKRNQLVAASSPQQLQQQKQQEPLIQNRTGNQSMTDKYSKLNELLATGTGIDTFGNVGEARIPAQHTKTGTFINSQGTGYRQVSDDPNHNPFLNSQYTGLPSTSVVPTQTGYGFGNQSQQQSQNNGSNNRGYTLIDL
# partner: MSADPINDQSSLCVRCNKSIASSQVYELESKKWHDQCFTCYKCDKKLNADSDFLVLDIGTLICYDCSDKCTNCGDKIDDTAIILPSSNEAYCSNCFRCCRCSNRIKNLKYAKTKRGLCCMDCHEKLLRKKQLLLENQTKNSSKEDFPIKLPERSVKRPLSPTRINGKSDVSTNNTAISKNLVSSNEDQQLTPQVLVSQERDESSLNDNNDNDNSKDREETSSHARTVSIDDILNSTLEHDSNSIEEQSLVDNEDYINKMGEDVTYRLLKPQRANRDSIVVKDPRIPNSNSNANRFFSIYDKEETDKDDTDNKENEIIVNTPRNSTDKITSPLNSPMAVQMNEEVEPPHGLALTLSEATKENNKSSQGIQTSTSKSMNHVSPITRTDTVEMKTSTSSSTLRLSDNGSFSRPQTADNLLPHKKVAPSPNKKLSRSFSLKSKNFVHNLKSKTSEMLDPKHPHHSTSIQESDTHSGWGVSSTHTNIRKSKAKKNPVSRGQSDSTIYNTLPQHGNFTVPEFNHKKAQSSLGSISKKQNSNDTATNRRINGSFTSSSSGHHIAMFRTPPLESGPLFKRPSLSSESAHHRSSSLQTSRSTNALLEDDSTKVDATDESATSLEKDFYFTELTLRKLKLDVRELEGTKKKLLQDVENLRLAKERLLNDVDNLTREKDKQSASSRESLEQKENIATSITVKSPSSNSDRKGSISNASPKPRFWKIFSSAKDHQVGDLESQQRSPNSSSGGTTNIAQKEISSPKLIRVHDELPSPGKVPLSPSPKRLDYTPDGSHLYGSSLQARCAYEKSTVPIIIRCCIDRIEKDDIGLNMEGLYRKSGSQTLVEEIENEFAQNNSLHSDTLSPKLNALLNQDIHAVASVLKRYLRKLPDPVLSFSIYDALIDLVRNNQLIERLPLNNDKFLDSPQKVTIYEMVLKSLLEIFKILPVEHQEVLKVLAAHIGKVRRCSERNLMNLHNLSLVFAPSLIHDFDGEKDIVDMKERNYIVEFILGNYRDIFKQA
# Variants of: B1
# Conditions: with rga2_yeast RGA2, Q06407
row,Variant,effect of a mutation on the interaction
1,MSKQFVRSAKNLVKGYSSTQVLVRNATSNDNHQVSKDSLIELAEKSYDSADFFEIMDMLDKRLNDKGKYWRHIAKALTVIDYLIRFGSENCVLWCRENLRIIKTLKEFRHEDDEGIDQGQIVRVKAKELTALLSDDERLNEERNMNIKGRNRKGRRRRGTGRSDENDDDLQRAISASRLTAEEDERRRKQDEDYETALQLSKEEEELKRLQDLQRMQQQQGQQQLQQPMYYDIFGNPITPEEYAQFQLQQQQQQQQQQLQQQPMYYDVFGNPITPEELAQFQQQQQLQEQQYLASMQQQQQAMSNNPFAKSEQSSSSPKRNQLVAASSPQQLQQQKQQEPLIQNRTGNQSMTDKYSKLNELLATGTGIDTFGNVGEARIPAQHTKTGTFINSQGTGYRQVSDDPNHNPFLNSQYTGLPSTSVVPTQTGYGFGNQSQQQSQNNGSNNRGYTLIDL [Y100R],disrupting interaction strength

# Variants of: B1
# Conditions: with rga2_yeast RGA2, Q06407
# Remark: another data set of the same source
row,Variant,effect of a mutation on the interaction
1,MSKQFVRSAKNLVKGYSSTQVLVRNATSNDNHQVSKDSLIELAEKSYDSADFFEIMDMLDKRLNDKGKYWRHIAKALTVIDYLIRFGSENCVLWCRENLRIIKDLKEFRHEDDEGIDQGQIVRVKAKELTALLSDDERLNEERNMNIKGRNRKGRRRRGTGRSDENDDDLQRAISASRLTAEEDERRRKQDEDYETALQLSKEEEELKRLQDLQRMQQQQGQQQLQQPMYYDIFGNPITPEEYAQFQLQQQQQQQQQQLQQQPMYYDVFGNPITPEELAQFQQQQQLQEQQYLASMQQQQQAMSNNPFAKSEQSSSSPKRNQLVAASSPQQLQQQKQQEPLIQNRTGNQSMTDKYSKLNELLATGTGIDTFGNVGEARIPAQHTKTGTFINSQGTGYRQVSDDPNHNPFLNSQYTGLPSTSVVPTQTGYGFGNQSQQQSQNNGSNNRGYTLIDL [Y100R;T104D],disrupting interaction strength
2,MSKQFVRSAKNLVKGYSSTQVLVRNATSNDNHQVSKDSLIELAEKSYDSADFFEIMDMLDKRLNDKGKYWRHIAKALTVIDYLIRFGSENCVLWCRENLYIIKDLKEFRHEDDEGIDQGQIVRVKAKELTALLSDDERLNEERNMNIKGRNRKGRRRRGTGRSDENDDDLQRAISASRLTAEEDERRRKQDEDYETALQLSKEEEELKRLQDLQRMQQQQGQQQLQQPMYYDIFGNPITPEEYAQFQLQQQQQQQQQQLQQQPMYYDVFGNPITPEELAQFQQQQQLQEQQYLASMQQQQQAMSNNPFAKSEQSSSSPKRNQLVAASSPQQLQQQKQQEPLIQNRTGNQSMTDKYSKLNELLATGTGIDTFGNVGEARIPAQHTKTGTFINSQGTGYRQVSDDPNHNPFLNSQYTGLPSTSVVPTQTGYGFGNQSQQQSQNNGSNNRGYTLIDL [T104D],disrupting interaction strength
